{
  "source": "patent US20250320281A1",
  "assay_in_all_cases": "cell-based or functional assay",
  "key": {"[1]": {"molecular_target": "HIV-1 Env of isolate MGRM-G-013 (HIV-1)"}, "[2]": {"molecular_target": "HIV-1 envelope glycoprotein (Env) of isolate 93TH305 (HIV-1)"}, "[3]": {"molecular_target": "HIV-1 Env of isolate MGRM-G-025 (HIV-1)"}, "[4]": {"molecular_target": "HIV-1 Env of isolate MGRM-G-019 (HIV-1)"}, "[5]": {"molecular_target": "HIV-1 Env of isolate 92TH021 (subtype AE) (HIV-1)"}, "[6]": {"molecular_target": "HIV-1 Env of isolate 92RW008 (subtype A) (HIV-1)"}, "[7]": {"molecular_target": "HIV-1 Env of isolate MGRM-G-011 (HIV-1)"}, "[8]": {"molecular_target": "HIV-1 Env of isolate MGRM-G-001 (HIV-1)"}, "[9]": {"molecular_target": "HIV-1 Env of isolate MGRM-AE-002 (subtype AE) (HIV-1)"}, "[10]": {"molecular_target": "HIV-1 envelope glycoprotein (Env) of isolate APV_13 (HIV-1)"}, "[11]": {"molecular_target": "HIV-1 Env of isolate MGRM-G-027 (HIV-1)"}, "[12]": {"molecular_target": "HIV-1 envelope glycoprotein (Env) of isolate MGRM-Chronic-B-008 (HIV-1)"}, "[13]": {"molecular_target": "HIV-1 envelope glycoprotein (Env) of isolate MGRM-Chronic-B-004 (HIV-1)"}, "[14]": {"molecular_target": "aMLV envelope (negative control pseudovirus)"}, "[15]": {"molecular_target": "HIV-1 Env of isolate CMU02 (subtype AE) (HIV-1)"}, "[16]": {"molecular_target": "HIV-1 Env of isolate 92UG037 (subtype A) (HIV-1)"}, "[17]": {"molecular_target": "HIV-1 Env of isolate 92WR021 (subtype A) (HIV-1)"}, "[18]": {"molecular_target": "HIV-1 Env of isolate MGRM-AE-004 (subtype AE) (HIV-1)"}, "[19]": {"molecular_target": "HIV-1 envelope glycoprotein (Env) of isolate 92BR020 (HIV-1)"}, "[20]": {"molecular_target": "HIV-1 envelope glycoprotein (Env) of isolate MGRM-Chronic-B-001 (HIV-1)"}, "[21]": {"molecular_target": "HIV-1 Env of isolate 92WR020 (subtype A) (HIV-1)"}, "[22]": {"molecular_target": "HIV-1 Env of isolate VLGCA1 (subtype A) (HIV-1)"}, "[23]": {"molecular_target": "HIV-1 Env of isolate MGRM-AE-003 (subtype AE) (HIV-1)"}, "[24]": {"molecular_target": "HIV-1 envelope glycoprotein (Env) of isolate JR-FL (HIV-1)"}, "[25]": {"molecular_target": "HIV-1 envelope glycoprotein (Env) of isolate CAAN.A2 (HIV-1)"}, "[26]": {"molecular_target": "HIV-1 Env of isolate MGRM-AE-001 (subtype AE) (HIV-1)"}, "[27]": {"molecular_target": "HIV-1 Env of isolate 93WR029 (subtype A) (HIV-1)"}, "[28]": {"molecular_target": "HIV-1 Env of isolate 92WR026 (subtype A) (HIV-1)"}, "[29]": {"molecular_target": "HIV-1 envelope glycoprotein (Env) of isolate APV_6 (HIV-1)"}, "[30]": {"molecular_target": "HIV-1 Env of isolate MGRM-AE-006 (subtype AE) (HIV-1)"}, "[31]": {"molecular_target": "HIV-1 Env of isolate 94 KE 105 (subtype AC) (HIV-1)"}, "[32]": {"molecular_target": "HIV-1 Env of isolate MGRM-G-015 (HIV-1)"}, "[33]": {"molecular_target": "HIV-1 Env of isolate 92UG031 (subtype A) (HIV-1)"}, "[34]": {"molecular_target": "HIV-1 Env of isolate MGRM-AE-005 (subtype AE) (HIV-1)"}, "[35]": {"molecular_target": "HIV-1 envelope glycoprotein (Env) of isolate 6535.3 (HIV-1)"}, "[36]": {"molecular_target": "HIV-1 Env of isolate MGRM-G-017 (HIV-1)"}, "[37]": {"molecular_target": "HIV-1 Env of isolate MGRM-G-024 (HIV-1)"}, "[38]": {"molecular_target": "HIV-1 envelope glycoprotein (Env) of isolate MGRM-Chronic-B-002 (HIV-1)"}, "[39]": {"molecular_target": "HIV-1 Env of isolate 92WR024 (subtype A) (HIV-1)"}, "[40]": {"molecular_target": "HIV-1 Env of isolate 94UG103 (subtype A) (HIV-1)"}, "[41]": {"molecular_target": "HIV-1 Env of isolate MGRM-G-014 (HIV-1)"}, "[42]": {"molecular_target": "HIV-1 Env of isolate MGRM-G-028 (HIV-1)"}, "[43]": {"molecular_target": "HIV-1 envelope glycoprotein (Env) of isolate MGRM-Chronic-B-003 (HIV-1)"}, "[44]": {"molecular_target": "HIV-1 Env of isolate MGRM-G-006 (HIV-1)"}, "[45]": {"molecular_target": "HIV-1 Env of isolate MGRM-G-009 (HIV-1)"}, "[46]": {"molecular_target": "HIV-1 Env of isolate MGRM-G-004 (HIV-1)"}, "[47]": {"molecular_target": "HIV-1 envelope glycoprotein (Env) of isolate APV_17 (HIV-1)"}, "[48]": {"molecular_target": "HIV-1 Env of isolate MGRM-G-016 (HIV-1)"}, "[49]": {"molecular_target": "HIV-1 Env of isolate 93UG077 (subtype A) (HIV-1)"}, "[50]": {"molecular_target": "HIV-1 Env of isolate 92WR009 (subtype A) (HIV-1)"}},
  "data": [
    {"substance": "4995_P16 (PGT-145) (antibody)", "values": [
      {"measurement": "IC50 (µg/mL), pseudovirus neutralization", "setting": "[1]", "result": "> 50", "unit": "µg/mL"},
      {"measurement": "IC50 (µg/mL), pseudovirus neutralization", "setting": "[2]", "result": 0.032, "unit": "µg/mL"},
      {"measurement": "IC50 (µg/mL), pseudovirus neutralization", "setting": "[3]", "result": "> 50", "unit": "µg/mL"},
      {"measurement": "IC50 (µg/mL), pseudovirus neutralization", "setting": "[4]", "result": 0.041, "unit": "µg/mL"},
      {"measurement": "IC50 (µg/mL), pseudovirus neutralization", "setting": "[5]", "result": 0.013, "unit": "µg/mL"},
      {"measurement": "IC50 (µg/mL), pseudovirus neutralization", "setting": "[6]", "result": 0.4, "unit": "µg/mL"},
      {"measurement": "IC50 (µg/mL), pseudovirus neutralization", "setting": "[7]", "result": 0.028, "unit": "µg/mL"},
      {"measurement": "IC50 (µg/mL), pseudovirus neutralization", "setting": "[8]", "result": 0.028, "unit": "µg/mL"},
      {"measurement": "IC50 (µg/mL), pseudovirus neutralization", "setting": "[9]", "result": 1.87, "unit": "µg/mL"},
      {"measurement": "IC50 (µg/mL), pseudovirus neutralization", "setting": "[10]", "result": 0.337, "unit": "µg/mL"},
      {"measurement": "IC50 (µg/mL), pseudovirus neutralization", "setting": "[11]", "result": 0.433, "unit": "µg/mL"},
      {"measurement": "IC50 (µg/mL), pseudovirus neutralization", "setting": "[12]", "result": 1.9, "unit": "µg/mL"},
      {"measurement": "IC50 (µg/mL), pseudovirus neutralization", "setting": "[13]", "result": 0.023, "unit": "µg/mL"},
      {"measurement": "IC50 (µg/mL), pseudovirus neutralization", "setting": "[14]", "result": "> 50", "unit": "µg/mL"},
      {"measurement": "IC50 (µg/mL), pseudovirus neutralization", "setting": "[15]", "result": 1.43, "unit": "µg/mL"},
      {"measurement": "IC50 (µg/mL), pseudovirus neutralization", "setting": "[16]", "result": 3.15, "unit": "µg/mL"},
      {"measurement": "IC50 (µg/mL), pseudovirus neutralization", "setting": "[17]", "result": 1.62, "unit": "µg/mL"},
      {"measurement": "IC50 (µg/mL), pseudovirus neutralization", "setting": "[18]", "result": 0.006, "unit": "µg/mL"},
      {"measurement": "IC50 (µg/mL), pseudovirus neutralization", "setting": "[19]", "result": 1.05, "unit": "µg/mL"},
      {"measurement": "IC50 (µg/mL), pseudovirus neutralization", "setting": "[20]", "result": 3.22, "unit": "µg/mL"},
      {"measurement": "IC50 (µg/mL), pseudovirus neutralization", "setting": "[21]", "result": 0.997, "unit": "µg/mL"},
      {"measurement": "IC50 (µg/mL), pseudovirus neutralization", "setting": "[22]", "result": 8.01, "unit": "µg/mL"},
      {"measurement": "IC50 (µg/mL), pseudovirus neutralization", "setting": "[23]", "result": 0.552, "unit": "µg/mL"},
      {"measurement": "IC50 (µg/mL), pseudovirus neutralization", "setting": "[24]", "result": 30.4, "unit": "µg/mL"},
      {"measurement": "IC50 (µg/mL), pseudovirus neutralization", "setting": "[25]", "result": 7.08, "unit": "µg/mL"},
      {"measurement": "IC50 (µg/mL), pseudovirus neutralization", "setting": "[26]", "result": 20.9, "unit": "µg/mL"},
      {"measurement": "IC50 (µg/mL), pseudovirus neutralization", "setting": "[27]", "result": "> 50", "unit": "µg/mL"},
      {"measurement": "IC50 (µg/mL), pseudovirus neutralization", "setting": "[28]", "result": 1.45, "unit": "µg/mL"},
      {"measurement": "IC50 (µg/mL), pseudovirus neutralization", "setting": "[29]", "result": 0.104, "unit": "µg/mL"},
      {"measurement": "IC50 (µg/mL), pseudovirus neutralization", "setting": "[30]", "result": "> 50", "unit": "µg/mL"},
      {"measurement": "IC50 (µg/mL), pseudovirus neutralization", "setting": "[31]", "result": 1.32, "unit": "µg/mL"},
      {"measurement": "IC50 (µg/mL), pseudovirus neutralization", "setting": "[32]", "result": 10.5, "unit": "µg/mL"},
      {"measurement": "IC50 (µg/mL), pseudovirus neutralization", "setting": "[33]", "result": 3.22, "unit": "µg/mL"},
      {"measurement": "IC50 (µg/mL), pseudovirus neutralization", "setting": "[34]", "result": 0.967, "unit": "µg/mL"},
      {"measurement": "IC50 (µg/mL), pseudovirus neutralization", "setting": "[35]", "result": "> 50", "unit": "µg/mL"},
      {"measurement": "IC50 (µg/mL), pseudovirus neutralization", "setting": "[36]", "result": 0.205, "unit": "µg/mL"},
      {"measurement": "IC50 (µg/mL), pseudovirus neutralization", "setting": "[37]", "result": 0.06, "unit": "µg/mL"},
      {"measurement": "IC50 (µg/mL), pseudovirus neutralization", "setting": "[38]", "result": 3.67, "unit": "µg/mL"},
      {"measurement": "IC50 (µg/mL), pseudovirus neutralization", "setting": "[39]", "result": 0.069, "unit": "µg/mL"},
      {"measurement": "IC50 (µg/mL), pseudovirus neutralization", "setting": "[40]", "result": 0.331, "unit": "µg/mL"},
      {"measurement": "IC50 (µg/mL), pseudovirus neutralization", "setting": "[41]", "result": 0.144, "unit": "µg/mL"},
      {"measurement": "IC50 (µg/mL), pseudovirus neutralization", "setting": "[42]", "result": 0.046, "unit": "µg/mL"},
      {"measurement": "IC50 (µg/mL), pseudovirus neutralization", "setting": "[43]", "result": 0.045, "unit": "µg/mL"},
      {"measurement": "IC50 (µg/mL), pseudovirus neutralization", "setting": "[44]", "result": 0.286, "unit": "µg/mL"},
      {"measurement": "IC50 (µg/mL), pseudovirus neutralization", "setting": "[45]", "result": 0.982, "unit": "µg/mL"},
      {"measurement": "IC50 (µg/mL), pseudovirus neutralization", "setting": "[46]", "result": "> 50", "unit": "µg/mL"},
      {"measurement": "IC50 (µg/mL), pseudovirus neutralization", "setting": "[47]", "result": 0.488, "unit": "µg/mL"},
      {"measurement": "IC50 (µg/mL), pseudovirus neutralization", "setting": "[48]", "result": 0.081, "unit": "µg/mL"},
      {"measurement": "IC50 (µg/mL), pseudovirus neutralization", "setting": "[49]", "result": "> 50", "unit": "µg/mL"},
      {"measurement": "IC50 (µg/mL), pseudovirus neutralization", "setting": "[50]", "result": 0.026, "unit": "µg/mL"}
    ]}
  ]
}
